Experimental data reported in the supplement of paper PMC9170038.

System: MS2 coat protein
Test: apparent KD of MS2 coat protein; designed switch direction (-1 OFF switch, 1 ON switch): -1; higher = weaker reporter binding
Procedure, shortened: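 The apparent KD reported per design is the median over clusters of curve fits to normalised cluster fluorescence. The RNA switches were transcribed on Illumina chips by stalled E. coli RNA polymerase. SNAP-549-labelled MS2 coat protein was titrated from 0.7 or 1.5 nM, doubling up to 3 µM, in Tris-HCl pH 7.5 buffer containing KCl, MgCl2, BSA, DTT, tRNA and Tween-20, with no input, 200 uM small-molecule ligand, or an oligonucleotide input.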

[1] = input ligand: microRNA oligo, concentration not stated
[2] = Eterna round: R95, input ligand: FMN 200 uM
[3] = Eterna round: R95, input ligand: microRNA oligo, concentration not stated
[4] = Eterna round: R95, input ligand: none

Row | Sequence | apparent KD of MS2 coat protein [1] | apparent KD of MS2 coat protein (input ligand: FMN 200 uM) | apparent KD of MS2 coat protein (input ligand: none) | apparent KD of MS2 coat protein [2] | apparent KD of MS2 coat protein [3] | apparent KD of MS2 coat protein [4]
1 | ACAAAACAUGAGGAUCACCCAUGUGAGGAUAUGCGAAACAAACAAACAAACAAACAAAGCAGAAGGCACAACAA [Ex 1 Tesla 3] (Eterna round: R96, puzzle: Exclusion 1) | 15.6 nM | – | – | – | – | –
2 | ACAAACAACAUAGGAUAUCUGCGGGUGUCAGUGCUCAUGGAUCUCCACAUGAGGAUCACCCAUGUAGAGAAGGAUGAACGCUUA [Retionzaan] (Eterna round: R96, puzzle: Exclusion NG 2) | 8.9 nM | 82.4 nM | 14.1 nM | – | – | –
3 | ACAAACAGCUGAGGAUAUCACGAGCAAGGCCAGUGAGAAGGUAGCUCAAACAUGAGGAUCACCCAUGUUAAACUUCCUCAUGCG [Raisorar] (Eterna round: R96, puzzle: Exclusion NG 1) | 10.4 nM | 13.7 nM | 17.7 nM | – | – | –
4 | ACAAGCGCGAAAGUCUUAUACAUGAGGAUCACCCAUGUUCUCAAGGUCUUAUGUACUGACACGAUUACUCGUCUUAU [AK-miRNA-r3-4] (Eterna round: R97, puzzle: Sensor, turn-off variant 1) | – | 117 nM | 112 nM | – | – | –
5 | ACAAGCUAAGUGCUCGGUCCGGGAGACACGUGAUCAGCGACAUGAGGAUCACCCAUGUAAUAGGAGCUUAAAACGUU [solution 46] (Eterna round: R96, puzzle: Sensor v2, turn-off variant 2) | 20.1 nM | 15 nM | 19.7 nM | – | – | –
6 | ACAAGCUCUGUGGGUGGGUACAUGAGGAUCACCCAUGUUUUGCUCGUCUUGUGGGCCCGGGCCCGCGGCCCGGGCCC [-41.4, -69.7, A 12%] (Eterna round: R97, puzzle: Sensor, turn-off variant 1) | – | 604 nM | 1180 nM | – | – | –
7 | ACAAGCUUAGGUUUUCAUAACAUGAGGAUCACCCAUGUUCGUCUUAUAAAAAUAAAAAUAAAAAACAAAAAAUAAAA [Sensor V2: 66] (Eterna round: R96, puzzle: Sensor v2, turn-off variant) | 117 nM | 39.1 nM | 41.2 nM | – | – | –
8 | ACAAGCUUGUAAUGAUUGAACAUGAGGAUCACCCAUGUAAAUGGAAGAACCAAUUUGAUAAGAUAUACUCGUCUUAU [JR_STOV1_Sub007] (Eterna round: R97, puzzle: Sensor, turn-off variant 1) | – | 57.8 nM | 59.1 nM | – | – | –
9 | ACAAGCUUUGAGUUCGUCUUAUACACUCCUAAUAAGAAAACAUGAGGAUCACCCAUGUAAGAAAUAAGAACUCAUGU [Sesor Array 3 - Jieux - Sensor v3, turn-off variant 2] (puzzle: Sensor v3, turn-off variant 2) | – | – | – | 25.5 nM | 291 nM | 27.8 nM
10 | ACAAGCUUUUGCUCGUCUUACAUGAGGAUCACCCAUGUCGGGUGCUUGCUUACGUCCAGCAUCUGGACCGUAGCAGU [-24.6, -43.1 kcal, 19% A] (Eterna round: R97, puzzle: Sensor, turn-off variant 1) | – | 142 nM | 165 nM | – | – | –
11 | ACAAGCUUUUUCAUAUCUUACAUGAGGAUCACCCAUGUUUUUGCAAUUAUGUUUGGGCUCUUUUGUGCUCGUCUUAU [JR_STOV1_Sub049] (Eterna round: R97, puzzle: Sensor, turn-off variant 1) | – | 14.9 nM | 15.4 nM | – | – | –
12 | ACAAGCUUUUUGUUCGUCUUAUAAAAUCCUAAGAGGAUAACAUGAGGAUCACCCAUGUAACAAAGACGGACUCAUGU [Sesor Array 13 - Jieux - Sensor v3, turn-off variant 2] (puzzle: Sensor v3, turn-off variant 2) | – | – | – | 11.7 nM | 120 nM | 9.57 nM
13 | ACAAGCUUUUUGUUCGUCUUAUAAUAUUAAAUAAAGAUAACAUGAGGAUCACCCAUGUAACAAAGACGGACUCAUGU [Sesor Array 17 - Jieux - Sensor v3, turn-off variant 2] (puzzle: Sensor v3, turn-off variant 2) | – | – | – | 16.2 nM | 200 nM | 13.8 nM
14 | ACACAAAGCUAGGAUAUCGAGGCAUCUUCGGCCCGAGAAGGAGCCACAUGAGGAUCACCCAUGUGGUGAUCCUG [eternacac ex6r4 sub4] (Eterna round: R97, puzzle: Exclusion 6) | – | 100 nM | 121 nM | – | – | –
15 | ACACAGAUAGGAUAUCGGACUAUGGACAUGAGGAUCACCCAUGUGCGUCCAAUGUCCGACCGAGAAGGAUCAACAG [Teesvete] (puzzle: Exclusion 5) | – | – | – | 146 nM | 51.8 nM | 77 nM
16 | ACAGUGCGAGGAUAUACAUGAGGAUCACCCAUGUGAGAGAAAUAAGUGAGGAAGAAAAGUAGAAGGCGCGUUGA [Mat - Exclusion 3 - Mod of Salish D70] (puzzle: Exclusion 3) | – | – | – | – | 45.8 nM | –
17 | ACAGUUUUGCAAGGAUAUCGUUUUAGUUUAUUACGAGAAGGUGCUUUAGUUAUUUCUUUGGGUUGACAUGAGGAUCACCCAUGU [JR_ExcNG1_Sub057] (Eterna round: R96, puzzle: Exclusion NG 1) | 144 nM | 136 nM | 148 nM | – | – | –
18 | ACAUGACAGCUAGGAUAUAAAUGACAUGAGGAUCACCCAUGUUGUCCCAUGUUGAGGAUCACCCAUUAGAAGGAGCCACCCAUG [Exclusion NG2 S1] (Eterna round: R96, puzzle: Exclusion NG 2) | 49.2 nM | 92.8 nM | 85.3 nM | – | – | –
19 | ACAUGACUGCUAGGAUAUAGAUGACAUGAGGAUCACCCAUGUUGUCCCAUGUUUAUGGAAACGGACUAGAAGGAGUAGUAUAUG [Ex NG2 #14] (Eterna round: R96, puzzle: Exclusion NG 2) | 23.4 nM | 30.7 nM | 27.9 nM | – | – | –
20 | ACAUGAGGAUCACCCAUGUAAUCAUGAUGGCUGAUGUAGAGCUAGGAUAUGAGUGGCUUUCUAUCUCAGAAGGAGCUAGACUGG [Deportation 41 - Jieux - Exclusion NG 3] (Eterna round: R96, puzzle: Exclusion NG 3) | 18.1 nM | 29.3 nM | 34.9 nM | – | – | –
21 | ACAUGAGGAUCACCCAUGUAAUCAUGAUGGCUGAUGUAGAGGUAGGAUAUGUGUGGCUUUCUAUCACAGAAGGACCAAGACUGG [Deportation 38 - Jieux - Exclusion NG 3] (Eterna round: R96, puzzle: Exclusion NG 3) | 46.6 nM | 46.3 nM | 59.8 nM | – | – | –
22 | ACAUGAGGAUCACCCAUGUCCGGCUGGUCCGUCUCGGCUGUCGAGGAUAUAGCUCGGUGUCCGCGCUAGAAGGUGGGAGCCGGC [Aenatbe mod 72] (Eterna round: R96, puzzle: Exclusion NG 3) | 134 nM | 212 nM | 217 nM | – | – | –
23 | ACAUGAGGAUCACCCAUGUCCGGCUGGUCCGUCUCGGCUGUCGAGGAUAUGGCUCGGUGUCCGCGCUAGAAGGUGGGAGCCGGA [Aenatbe mod 75] (Eterna round: R96, puzzle: Exclusion NG 3) | 45.1 nM | 56.7 nM | 93.5 nM | – | – | –
